Positions count from the first letter of the chain named.
B1: Recombinant human MMP-2 (protein)
chain: YNFFPRKPKWDKNQITYRIIGYTPDLDPETVDDAFARAFQVWSDVTPLRFSRIHDGEADIMINFGRWEHGDGYPFDGKDGLLAHAFAPGTGVGGDSHFDDDELWTLGEGQVVRVKYGNADGEYCKFPFLFNGKEYNSCTDTGRSDGFLWCSTTYNFEKDGKYGFCPHEALFTMGGNAEGQPCKFPFRFQGTSYDSCTTEGRTDGYRWCGTTEDYDRDKKYGFCPETAMSTVGGNSEGAPCVFPFTFLGNKYESCTSAGRSDGKMWCATTANYDDDRKWGFCPDQGYSLFLVAAHEFGHAMGLEHSQDPGALMAPIYTYTKNFRLSQDDIKGIQELYGASPDIDLGTGPTPTLGPVTPEICKQDIVFDGIAQIRGEIFFFKDRFIWRTVTPRDKPMGPLLVATFWPELPEKIDAVYEAPQEEKAVFFAGNEYWIYSASTLERGYPKPLTSLGLPPDVQRVDAAFNWSKNKKTYIFAGDKFWRYNEVKKKMDPGFPKLIADAWNAIPDNLDAVVDLQGGGHSYFFKGAYYLKLENQSLKSVKFGSIKSDWLGC
B2: Recombinant human ADAM-10 (protein)
chain: TTSAEKNTCQLYIQTDHLFFKYYGTREAVIAQISSHVKAIDTIYQTTDFSGIRNISFMVKRIRINTTADEKDPTNPFRFPNIGVEKFLELNSEQNHDDYCLAYVFTDRDFDDGVLGLAWVGAPSGSSGGICEKSKLYSDGKKKSLNTGIITVQNYGSHVPPKVSHITFAHEVGHNFGSPHDSGTECTPGESKNLGQKENGNYIMYARATSGDKLNNNKFSLCSIRNISQVLEKKRNNCFVESGQPICGNGMVEQGEECDCGYSDQCKDECCFDANQPEGRKCKLKPGKQCSPSQGPCCTAQCAFKSKSEKCRDDSDCAREGICNGFTALCPASDPKPNFTDCNRHTQVCINGQCAGSICEKYGLEECTCASSDGKDDKELCHVCCMKKMDPSTCASTGSVQWSRHFSGRTITLQPGSPCNDFRGYCDVFMRCRLVDADGPLARLKKAIFSPELYENIAE

Columns and labels:
[1] = target: quenched fluorogenic peptide of the human CD28 stalk region with L145K
[2] = target: T1, L145K mutated biotinylated and Myc tagged human CD28 stalk region dimeric peptide
T1 chain: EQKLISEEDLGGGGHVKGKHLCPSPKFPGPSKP

[3] = target: T2, quenched fluorogenic peptide of the human CD28 stalk region (WT)
T2 chain: KGKHLSPSPLFPGPSKPE

[4] = target: T3, c-Myc conjugated and biotinylated human CD28 stalk region dimeric peptide (wild-type)
T3 chain: T1 chain with K26L

| Protein | fluorescence from cleavage of quenched fluorogenic peptide (2.5 µM peptide, 30 ng enzyme) [1] | percent of peptide cleaved (intact peptide by anti-Myc ELISA, 25 and 50 ng enzyme, 5 hours) [2] | fluorescence from cleavage of quenched fluorogenic peptide [3] | fluorescence from cleavage of quenched fluorogenic peptide (2.5 µM peptide, 30 ng enzyme) [3] | fluorescence from cleavage of quenched fluorogenic peptide, titration of protease [3] | intact peptide by anti-Myc ELISA (25 and 50 ng enzyme, 5 hours) [4] |
| --- | --- | --- | --- | --- | --- | --- |
| B1 | both were completely incapable of cleaving the mutant peptide | the mutated peptide was not substantially cleaved (<5%) by either MMP-2 or MMP-13 | MMP-2 cleaves the stalk domain peptide | both enzymes efficiently cleaved the WT peptide | the cleavage of the peptide was dose dependent | the WT peptide was cleaved in a dose dependent manner |
| B2 |  |  | ADAM-10 and ADAM-17 did not |  |  |  |
